The record followed here is the RNAGym collection of RNA variant scans (doi:10.1093/molbev/msab373).

B1: Azoarcus group I ribozyme (parent)
chain: GUGCCUUGCGCCGGGAAACCACGCAAGGGAUGGUGUCAAAUUCGGCGAAACCUAAGCGCCCGCCCGGGCGUAUGGCAACGCCGAGCCAAGCUUCGGCGCCUGCGCCGAUGAAGGUGUAGAGACUAGACGGCACCCACCUAAGGCAAACGCUAUGGUGAAGGCAUAGUCCAGGGAGUGGCGAAAGUCACACAAACCGG

The series covers variants of B1. The experiment in a line: reverse-splicing fitness (ratio to wild type); higher = more active; in vitro selection; Mg2+ level not given. The essentials: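 An in vitro group I ribozyme library with randomized positions was T7-transcribed and gel-purified. In triplicate, 10 pmol RNA in EPPS pH 7.5 was reacted with 50 pmoles of a 30-nt RNA substrate for 1 h at 37 °C across several added MgCl2 levels (1–48 mM), then stopped with EDTA. Products were reverse transcribed from a substrate-complementary primer, PCR-amplified and sequenced (HiSeq 4000). Fitness is a variant's read proportion after selection over that before, normalised to wild type.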
Regarding A111G A120G A145C C150G U176C, the reverse-splicing fitness was 0.0228. On to C82U A111G A120G A145U C150U C169U U176C, for which the reverse-splicing fitness stood at 0.0131. C82G A111G A120C A145C C150U C169G U176A: the reverse-splicing fitness turned out to be 0.0242. Then C82A A111G A120C A145U C150G C169A U176A, with 0.011; and C82G A120C A145G C150G U176C, with 0.0168; and C82G A120G A145U C150U C169U U176C, with 0.0181. As to C150A U176C, the reverse-splicing fitness is 0.398.

Regarding C82A A120U A145G C169G U176C, the reverse-splicing fitness amounted to 0.00373.

As to A111C A120U A145C C169A, the reverse-splicing fitness was 0.00529. In the case of C82G A111U A145U C150G U176C, the reverse-splicing fitness was determined as 0.0254.

For the variant C82G A111U A120G A145G C150U C169A U176C, the reverse-splicing fitness amounted to 0.0145. With A111G A120C A145U C150G C169G, the reverse-splicing fitness is 0.00597.

On to C82U A111G A120U A145U U176G, for which the reverse-splicing fitness is 0.004.

In the case of A111G C150A C169G U176A, the reverse-splicing fitness came to 0.0252. With C82A A111G A145C C150G U176C the figure was 0.0181; with C82U A111U A120C C150G C169U U176A, 0.0091. Take A111U A120U A145C C150G C169U U176G: the reverse-splicing fitness was 0.00228.

On to C82G A111G A120U A145U C150G C169G U176G, for which the reverse-splicing fitness came out at 0.00197.

On to C82A A111G A120U A145G C169U U176G, for which the reverse-splicing fitness is 0.00173. Then C82U A111C A120U C150A C169G U176C, with 0.00392. Then C82A A111U A120C A145U C150A C169A U176C, with 0.0189. As for C82G A111C C150G C169G U176C, the reverse-splicing fitness came out at 0.00598.

For C82G A111G A120U A145U C169U, the reverse-splicing fitness came out at 0.00451. Then C82G C150A C169U U176C, with 0.0141; and C82A A111U A120G A145G C169A U176A, with 0.0222; and A120C C150U C169U U176A, with 0.118. Take C82G A111U A120C A145U C169G: the reverse-splicing fitness is 0.00981. With C82G A111C A120G A145G C150U the figure was 0.0132; with C82U A111C A120G A145C C150A C169G U176C, 0.0127; with A111G A145C C150G C169A, 0.0117. Then C82U A120U A145G C150U C169G U176C, with 0.00361; and A111U A145U U176A, with 0.747. With C82U A111C A120G A145C C169A U176C, the reverse-splicing fitness was found to be 0.00533.

On to C82A A111G A120U A145G C150A C169U U176C, for which the reverse-splicing fitness amounted to 0.00493. With C82U A145C C150A C169A U176A the figure was 0.0088. Then C82G A111G A120U C150A C169G U176A, with 0.00749; and C82A A111G A120G A145U C169U U176G, with 0.00416; and C82U A111C A120C A145U C169A U176A, with 0.0107. For the variant C82G A120G A145G C150G U176C, the reverse-splicing fitness turned out to be 0.011. Then A111G A120U A145U C150A U176C, with 0.0372; and C82G A111U A120C A145G C150A C169G U176G, with 0.00823. C82G A111C A145U C169U U176G: the reverse-splicing fitness was determined as 0.00693. Then A111U A120U A145G C150A U176C, with 0.0415; and C82G A111G A120G A145G C150G U176A, with 0.00718; and C82G A120U C150A U176A, with 0.0102.

As for A111G A120U C150G C169G U176A, the reverse-splicing fitness came to 0.00427. With C82A A111G A120U A145G C150A U176G, the reverse-splicing fitness came out at 0.00419.

Turning to C82U A120C A145G U176C, the reverse-splicing fitness came to 0.0715. Then C82G A111U A120C A145U C150G C169G U176A, with 0.00838; and A111U A120G C150A C169U U176A, with 0.0295; and A111U A120G C150A C169U U176G, with 0.0082. With C82G A111U A120U A145U the figure was 0.0429. Turning to C82A A120C A145U C150U U176C, the reverse-splicing fitness amounted to 0.0422. As to A111C A145C U176C, the reverse-splicing fitness was found to be 0.372. With C82G A111C A145G C150G C169A U176C the figure was 0.0129; with C82U A120C A145C U176A, 0.0438.

On to C82G A111G A120G C150U C169A U176G, for which the reverse-splicing fitness was 0.00607. With A120C A145G C150A C169A U176C the figure was 0.0217. C82U A145G: the reverse-splicing fitness was determined as 0.63. C82A A111U A120G A145C U176A: the reverse-splicing fitness was 0.0112. With C82U A120U A145U U176G the figure was 0.013; with C82U A111U A120C A145C C150U C169A U176G, 0.00569. With C82A A111U A120U C150G C169A the figure was 0.00872; with C82U A111U A120C C150G, 0.00758. Turning to A111C A145G C150G C169A U176C, the reverse-splicing fitness stood at 0.011.

As to C82A A111G A120C A145C C150G C169G U176A, the reverse-splicing fitness was 0.00979. On to C82U A111U A120G C150G C169G U176G, for which the reverse-splicing fitness stood at 0.00425. With A111C A120C A145C C150G the figure was 0.0702. With A111G C150U U176G, the reverse-splicing fitness turned out to be 0.271.

In the case of C82U A145C C150A U176A, the reverse-splicing fitness came to 0.031. Regarding C82U A111U A120C C150G U176G, the reverse-splicing fitness came out at 0.00352.

For C82U A120G A145U C150G C169G U176A, the reverse-splicing fitness was found to be 0.00669. Then C82U A120C A145C C150A C169U U176G, with 0.00376; and C82G A111U A120C C150U C169U U176G, with 0.00768; and C82G A111C A120C C169G U176G, with 0.00714. As to C82A A111U C169A, the reverse-splicing fitness was found to be 0.00917. For the variant C82U A111G C150U C169A U176G, the reverse-splicing fitness amounted to 0.00543. Then C82G A111G A145G C150U, with 0.316.

Consider C82A A111C A120U A145G C150U C169A, for which the reverse-splicing fitness turned out to be 0.00691. For A111C A120U A145U C150G U176A, the reverse-splicing fitness turned out to be 0.0214. Turning to A111C A145G C169U U176G, the reverse-splicing fitness came to 0.00717. For C82G A120C A145C C150G C169G, the reverse-splicing fitness worked out at 0.00712.

For C82A A111G A120G A145G C150G C169U, the reverse-splicing fitness is 0.0091.
